# Reference: patent US20140274782A1, “AFFINITY REAGENTS AND METHODS FOR DETECTION, PURIFICATION, AND PROTEOMIC ANALYSIS OF METHYLATED PROTEINS” (The Board of Trustees of the Leland Stanford Junior …, priority 2013, published 2014)
# T1: G9a and GLP (Homo sapiens, UniProt Q96KQ7+Q9H9B1)
# T1 sequence (Q96KQ7 2-1210 limits assumed): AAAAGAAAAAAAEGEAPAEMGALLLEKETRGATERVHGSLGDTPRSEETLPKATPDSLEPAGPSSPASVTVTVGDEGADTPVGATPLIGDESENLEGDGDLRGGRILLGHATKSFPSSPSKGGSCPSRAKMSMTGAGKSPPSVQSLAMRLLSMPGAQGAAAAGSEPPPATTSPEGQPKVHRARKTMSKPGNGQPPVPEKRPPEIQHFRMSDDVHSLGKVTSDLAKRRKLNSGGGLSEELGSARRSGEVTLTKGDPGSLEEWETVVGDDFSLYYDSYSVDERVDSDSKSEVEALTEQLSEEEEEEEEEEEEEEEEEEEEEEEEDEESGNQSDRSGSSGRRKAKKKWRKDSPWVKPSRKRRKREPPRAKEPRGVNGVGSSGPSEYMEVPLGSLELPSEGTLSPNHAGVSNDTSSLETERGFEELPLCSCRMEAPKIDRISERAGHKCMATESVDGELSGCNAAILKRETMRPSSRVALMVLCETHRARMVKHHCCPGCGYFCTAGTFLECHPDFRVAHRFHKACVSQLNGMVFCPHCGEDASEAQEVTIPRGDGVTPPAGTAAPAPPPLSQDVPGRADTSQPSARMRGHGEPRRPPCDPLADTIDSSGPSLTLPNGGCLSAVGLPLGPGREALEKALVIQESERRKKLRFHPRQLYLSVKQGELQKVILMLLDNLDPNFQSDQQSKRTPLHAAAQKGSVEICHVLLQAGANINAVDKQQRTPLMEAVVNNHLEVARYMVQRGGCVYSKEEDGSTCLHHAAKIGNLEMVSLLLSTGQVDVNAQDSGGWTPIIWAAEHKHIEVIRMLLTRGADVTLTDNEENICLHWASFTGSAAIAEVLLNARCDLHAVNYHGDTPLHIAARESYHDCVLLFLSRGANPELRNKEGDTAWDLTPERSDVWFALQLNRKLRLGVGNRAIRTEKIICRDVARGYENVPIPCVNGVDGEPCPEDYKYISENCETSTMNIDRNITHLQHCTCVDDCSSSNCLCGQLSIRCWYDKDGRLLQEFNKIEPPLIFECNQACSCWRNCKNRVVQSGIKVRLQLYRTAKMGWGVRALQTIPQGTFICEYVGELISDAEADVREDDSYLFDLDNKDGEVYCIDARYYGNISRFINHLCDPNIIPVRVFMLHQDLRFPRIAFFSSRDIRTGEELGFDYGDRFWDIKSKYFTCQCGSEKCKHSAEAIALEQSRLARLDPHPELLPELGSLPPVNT
# T1 sequence (Q9H9B1 2-1298 limits assumed): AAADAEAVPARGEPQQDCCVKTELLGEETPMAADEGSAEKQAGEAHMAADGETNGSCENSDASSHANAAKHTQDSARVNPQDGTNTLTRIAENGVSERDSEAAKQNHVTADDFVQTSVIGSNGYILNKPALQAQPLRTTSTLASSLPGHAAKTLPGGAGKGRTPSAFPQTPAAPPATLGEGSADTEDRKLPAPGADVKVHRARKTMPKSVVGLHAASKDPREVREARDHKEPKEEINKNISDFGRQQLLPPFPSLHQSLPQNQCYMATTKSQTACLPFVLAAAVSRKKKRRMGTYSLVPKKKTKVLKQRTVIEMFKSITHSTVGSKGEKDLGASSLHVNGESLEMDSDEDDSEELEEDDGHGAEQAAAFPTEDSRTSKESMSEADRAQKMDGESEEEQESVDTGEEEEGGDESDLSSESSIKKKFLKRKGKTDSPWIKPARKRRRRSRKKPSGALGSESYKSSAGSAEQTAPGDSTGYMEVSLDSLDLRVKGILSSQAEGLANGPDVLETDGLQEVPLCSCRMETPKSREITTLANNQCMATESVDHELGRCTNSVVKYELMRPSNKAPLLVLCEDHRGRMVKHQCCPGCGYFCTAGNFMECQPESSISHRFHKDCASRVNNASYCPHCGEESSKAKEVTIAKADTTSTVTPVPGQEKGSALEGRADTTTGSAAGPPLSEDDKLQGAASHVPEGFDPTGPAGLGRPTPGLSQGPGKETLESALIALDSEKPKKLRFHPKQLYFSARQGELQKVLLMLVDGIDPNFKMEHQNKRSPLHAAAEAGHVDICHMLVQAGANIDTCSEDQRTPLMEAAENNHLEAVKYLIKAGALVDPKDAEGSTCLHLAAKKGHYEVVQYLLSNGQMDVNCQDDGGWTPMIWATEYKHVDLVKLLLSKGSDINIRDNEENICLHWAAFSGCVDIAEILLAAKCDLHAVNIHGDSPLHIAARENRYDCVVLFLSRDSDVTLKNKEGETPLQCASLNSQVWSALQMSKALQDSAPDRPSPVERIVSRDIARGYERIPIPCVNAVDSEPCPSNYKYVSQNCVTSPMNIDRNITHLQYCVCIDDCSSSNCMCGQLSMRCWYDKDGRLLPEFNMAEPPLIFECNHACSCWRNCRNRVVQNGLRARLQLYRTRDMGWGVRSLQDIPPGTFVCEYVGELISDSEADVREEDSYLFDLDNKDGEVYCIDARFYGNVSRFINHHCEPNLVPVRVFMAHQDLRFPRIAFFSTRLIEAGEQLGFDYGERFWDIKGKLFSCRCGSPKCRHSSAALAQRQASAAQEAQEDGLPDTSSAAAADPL
# B1: PEF1 (protein, UniProt Q9UBV8 1-284, looked up)
# Peflin: MASYPYRQGCPGAAGQAPGAPPGSYYPGPPNSGGQYGSGLPPGGGYGGPAPGGPYGPPAGGGPYGHPNPGMFPSGTPGGPYGGAAPGGPYGQPPPSSYGAQQPGLYGQGGAPPNVDPEAYSWFQSVDSDHSGYISMKELKQALVNCNWSSFNDETCLMMINMFDKTKSGRIDVYGFSALWKFIQQWKNLFQQYDRDRSGSISYTELQQALSQMGYNLSPQFTQLLVSRYCPRSANPAMQLDRFIQVCTQLQVLTEAFREKDTAVQGNIRLSFEDFVTMTASRML
# B2: Protein syndesmos (protein, UniProt Q9BRJ7 1-211, looked up)
# Tudor-interacting repair …: MSTAAVPELKQISRVEAMRLGPGWSHSCHAMLYAANPGQLFGRIPMRFSVLMQMRFDGLLGFPGGFVDRRFWSLEDGLNRVLGLGLGCLRLTEADYLSSHLTEGPHRVVAHLYARQLTLEQLHAVEISAVHSRDHGLEVLGLVRVPLYTQKDRVGGFPNFLSNAFVSTAKCQLLFALKVLNMMPEEKLVEALAAATEKQKKALEKLLPASS
# B3: WD repeat-containing protein 70 (protein, UniProt Q9NW82 1-654, looked up)
# WD repeat-containing protein …: MERSGPSEVTGSDASGPDPQLAVTMGFTGFGKKARTFDLEAMFEQTRRTAVERSRKTLEAREKEEEMNREKELRRQNEDIEPTSSRSNVVRDCSKSSSRDTSSSESEQSSDSSDDELIGPPLPPKMVGKPVNFMEEDILGPLPPPLNEEEEEAEEEEEEEEEEENPVHKIPDSHEITLKHGTKTVSALGLDPSGARLVTGGYDYDVKFWDFAGMDASFKAFRSLQPCECHQIKSLQYSNTGDMILVVSGSSQAKVIDRDGFEVMECIKGDQYIVDMANTKGHTAMLHTGSWHPKIKGEFMTCSNDATVRTWEVENPKKQKSVFKPRTMQGKKVIPTTCTYSRDGNLIAAACQNGSIQIWDRNLTVHPKFHYKQAHDSGTDTSCVTFSYDGNVLASRGGDDSLKLWDIRQFNKPLFSASGLPTMFPMTDCCFSPDDKLIVTGTSIQRGCGSGKLVFFERRTFQRVYEIDITDASVVRCLWHPKLNQIMVGTGNGLAKVYYDPNKSQRGAKLCVVKTQRKAKQAETLTQDYIITPHALPMFREPRQRSTRKQLEKDRLDPLKSHKPEPPVAGPGRGGRVGTHGGTLSSYIVKNIALDKTDDSNPREAILRHAKAAEDSPYWVSPAYSKTQPKTMFAQVESDDEEAKNEPEWKKRKI
# B4: Heterogeneous nuclear ribonucleoprotein L (protein, UniProt P14866 1-589, looked up)
# Heterogeneous nuclear …: MSRRLLPRAEKRRRRLEQRQQPDEQRRRSGAMVKMAAAGGGGGGGRYYGGGSEGGRAPKRLKTDNAGDQHGGGGGGGGGAGAAGGGGGGENYDDPHKTPASPVVHIRGLIDGVVEADLVEALQEFGPISYVVVMPKKRQALVEFEDVLGACNAVNYAADNQIYIAGHPAFVNYSTSQKISRPGDSDDSRSVNSVLLFTILNPIYSITTDVLYTICNPCGPVQRIVIFRKNGVQAMVEFDSVQSAQRAKASLNGADIYSGCCTLKIEYAKPTRLNVFKNDQDTWDYTNPNLSGQGDPGSNPNKRQRQPPLLGDHPAEYGGPHGGYHSHYHDEGYGPPPPHYEGRRMGPPVGGHRRGPSRYGPQYGHPPPPPPPPEYGPHADSPVLMVYGLDQSKMNCDRVFNVFCLYGNVEKVKFMKSKPGAAMVEMADGYAVDRAITHLNNNFMFGQKLNVCVSKQPAIMPGQSYGLEDGSCSYKDFSESRNNRFSTPEQAAKNRIQHPSNVLHFFNAPLEVTEENFFEICDELGVKRPSSVKVFSGKSERSSSGLLEWESKSDALETLGFLNHYQMKNPNGPYPYTLKLCFSTAQHAS
# B5: Probable ATP-dependent RNA helicase DDX23 (protein, UniProt Q9BUQ8 1-820, looked up)
# Probable ATP-dependent RNA …: MAGELADKKDRDASPSKEERKRSRTPDRERDRDRDRKSSPSKDRKRHRSRDRRRGGSRSRSRSRSKSAERERRHKERERDKERDRNKKDRDRDKDGHRRDKDRKRSSLSPGRGKDFKSRKDRDSKKDEEDEHGDKKPKAQPLSLEELLAKKKAEEEAEAKPKFLSKAEREAEALKRRQQEVEERQRMLEEERKKRKQFQDLGRKMLEDPQERERRERRERMERETNGNEDEEGRQKIREEKDKSKELHAIKERYLGGIKKRRRTRHLNDRKFVFEWDASEDTSIDYNPLYKERHQVQLLGRGFIAGIDLKQQKREQSRFYGDLMEKRRTLEEKEQEEARLRKLRKKEAKQRWDDRHWSQKKLDEMTDRDWRIFREDYSITTKGGKIPNPIRSWKDSSLPPHILEVIDKCGYKEPTPIQRQAIPIGLQNRDIIGVAETGSGKTAAFLIPLLVWITTLPKIDRIEESDQGPYAIILAPTRELAQQIEEETIKFGKPLGIRTVAVIGGISREDQGFRLRMGCEIVIATPGRLIDVLENRYLVLSRCTYVVLDEADRMIDMGFEPDVQKILEHMPVSNQKPDTDEAEDPEKMLANFESGKHKYRQTVMFTATMPPAVERLARSYLRRPAVVYIGSAGKPHERVEQKVFLMSESEKRKKLLAILEQGFDPPIIIFVNQKKGCDVLAKSLEKMGYNACTLHGGKGQEQREFALSNLKAGAKDILVATDVAGRGIDIQDVSMVVNYDMAKNIEDYIHRIGRTGRAGKSGVAITFLTKEDSAVFYELKQAILESPVSSCPPELANHPDAQHKPGTILTKKRREETIFA
# Tests used:
# G9a and GLP = molecular target: T1, G9a and GLP; test: Triple SILAC pull-down after UNC0638 treatment of 293T cells, DMSO/UNC0638 ratio of protein captured by 3×MBT; type: cell-based; parameters: cells were treated for 24 hours with UNC0638 at 2.5 μM or DMSO vehicle control; endogenous in cells; host or cells: HEK 293T; details: for Protein Ratios DMSO/UNC0638: SILAC ratio of protein captured by 3xMBT, 293T cells treated 24 hours with UNC0638 at 2.5 μM or DMSO;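 on all read-outs here: mass spectrometry (Q-Exactive) SILAC quantitation, DMSO/UNC0638 ratio computed after subtracting 3×MBTD355N mutant pull-down background, only proteins with at least twofold 3×MBT over mutant signal considered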
# 3×MBT domain of L3MBTL1 = test: Triple SILAC pull-down, 3xMBT/3xMBTD355N ratio (cytoplasmic, nuclear and chromatin fractions of 293T cells); type: binding, human; details: SILAC ratio; for Protein Ratios 3xMBT/D355N: pull-down by 3xMBT vs 3xMBTD355N, 293T cells;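 on all read-outs here: proteins quantified with MaxQuant, requiring at least two unique peptides and quantification in both label directions, normalized to the mean of proteins from a digested loading control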
Molecule,"Relative to UNC0638 UNC Heavy (G9a and GLP; SILAC ratio DMSO/UNC0638 of protein pulled down with 3xMBT, UNC0638 in heavy SILAC media) [log base 2]","Relative to UNC0638 UNC Light (G9a and GLP; SILAC ratio DMSO/UNC0638 of protein pulled down with 3xMBT, UNC0638 in light SILAC media) [log base 2]",Relative to UNC0638 Average (G9a and GLP; average of UNC Light and UNC Heavy experiments) [log base 2],"3xMBT/D355N UNC Heavy (3×MBT domain of L3MBTL1; pull-down 3xMBT vs 3xMBTD355N, experiment with UNC0638 in heavy SILAC media) [log base 2]","3xMBT/D355N UNC Light (3×MBT domain of L3MBTL1; pull-down 3xMBT vs 3xMBTD355N, experiment with UNC0638 in light SILAC media) [log base 2]",Protein Ratios DMSO/UNC0638 (G9a and GLP),Protein Ratios 3xMBT/D355N (3×MBT domain of L3MBTL1)
B1,0.30,0.17,0.24,1.48,1.78,–,–
B2,–,–,–,–,–,1.3,3.5
B3,–,–,–,–,–,1.3,5.9
B4,–,–,–,–,–,1.3,2.4
B5,–,–,–,–,–,1.3,4.8
